Results on 167 variants are retold here after the RNAGym collection of RNA variant scans (doi:10.7554/elife.80360).

B1: HDV Ribozyme (parent)
chain: GGCCGGCAUGGUCCCAGCCUCCUCGCUGGCGCCGGCUGGGCAACAUUCCGAGGGGACCGUCCCCUCGGUAAUGGCGAAUGGGACCCA

The variants in this series derive from B1. As to the kind of experiment: self-cleavage, relative activity (ratio to wild type); higher = more cleavage; co-transcriptional.
Regarding G34A C64A, the self-cleavage stood at 0.128.

For the variant C32G G82U, the self-cleavage is 0.228. On to G6U C14G, for which the self-cleavage is 0.166. With G25C G74C the figure was 0.

As to A43C C86G, the self-cleavage amounted to 0.399.

For C41U U72C, the self-cleavage came to 0.375. With U12C C22A the figure was 0.115; with C30U C48G, 0.597; with U46A G68U, 0.657. Regarding A56U C58U, the self-cleavage came out at 0.985. As for C13A G40A, the self-cleavage was 0.233. For C22G C41U, the self-cleavage amounted to 0.0656.

Consider U47C C62G, for which the self-cleavage stood at 0.415. With C57A C75A the figure was 0.277; with U47A G55A, 0.927; with G31C A56C, 0.325.

C30U A51C: the self-cleavage amounted to 0.594. With C30A G31C the figure was 0.115; with U60C G68U, 1.2; with G10A A77G, 0.53. With G11A G34U the figure was 0.219. Next, C13U U37A: 0.0308. For the variant G28C C66G, the self-cleavage worked out at 0.13. For the variant G25U G40A, the self-cleavage turned out to be 0.111.

Regarding A8G C24G, the self-cleavage came out at 0.0639.

For C24U U65C, the self-cleavage is 0.597. With C3G U9A the figure was 0.799. With G67U A70G the figure was 1.16. With C4G G5U, the self-cleavage was found to be 0.0545. With U9A U20C, the self-cleavage is 0.128. Regarding C26U C33A, the self-cleavage came out at 0.307. In the case of C3U C85G, the self-cleavage turned out to be 0.87. Next, G39U U46G: 0.222.

For the variant C41U A83U, the self-cleavage was 0.583. Next, A43U A83G: 0.0986; C3A C4G: 0.0225; G11C U79A: 0.0723. Regarding C57A C64G, the self-cleavage was determined as 0.658. Turning to C26U A51G, the self-cleavage turned out to be 0.95. For G31A G54A, the self-cleavage is 0.295. Next, C30A G54C: 0.519; G53C C61G: 0.955. As for C30A G76C, the self-cleavage is 0.464. With C19A A77U the figure was 0.145; with C26A A42G, 0.665; with C13G A70G, 0.229.

For the variant G6U U47A, the self-cleavage came out at 0.482. With C22A G28C the figure was 0; with C30U A83C, 0.332. With C62G A71C the figure was 0.443.

For G59U U72C, the self-cleavage came out at 0.599.

Regarding G40U U79A, the self-cleavage was determined as 0.262. With C3G G50A, the self-cleavage came out at 0.589. Regarding A71C A87G, the self-cleavage was 0.993. As to A16C U65A, the self-cleavage came to 0.65.

On to U46A A56G, for which the self-cleavage worked out at 0.831. With A42G U47G the figure was 0.7; with C62A G74C, 0.113; with U69C G73C, 0.633. With C41U G59U the figure was 0.937; with C3U C63U, 0.645; with C30U G73C, 0.136.

In the case of G28U G54A, the self-cleavage was found to be 0.115. Take C13G G29U: the self-cleavage turned out to be 0.0415. With G1A C33U, the self-cleavage worked out at 0.0594. On to U47A C61G, for which the self-cleavage stood at 0.639. With U65A C84G the figure was 0.494; with G28C C61U, 0.185; with C33G C61U, 0.212. Next, G6A C62U: 0.728; C4G C62G: 0.123; C36U C44A: 0.166.

Consider C24U C49G, for which the self-cleavage came to 0.536. Next, G40U G76C: 0.492; C44U U72G: 0.665.

Turning to G11C G59U, the self-cleavage amounted to 0.35.

Turning to G6A C48G, the self-cleavage amounted to 0.657. Next, C48U C64G: 0.721; G6A G11U: 0.095; C33U A70C: 0.931.

With A56G G68A, the self-cleavage amounted to 0.96. Take G11A C44U: the self-cleavage was 0.0723. With C7G A87C, the self-cleavage stood at 0.211.

In the case of C30A G73C, the self-cleavage is 0.119. With C63G A83G the figure was 0.519; with G5A G50C, 0.225; with C30U G34C, 0.0923. On to G35C U60C, for which the self-cleavage turned out to be 0.237. As for C22G A83U, the self-cleavage is 0.0462. Regarding C36A G59A, the self-cleavage worked out at 0.164. With C14G A87U the figure was 0.895; with A42G U69C, 0.462; with C33U C58G, 0.929. Take C58A C85A: the self-cleavage worked out at 0.877. With U23G A83G, the self-cleavage was 0.237.

C3A C49U: the self-cleavage was determined as 0.777. With U37A A77U the figure was 0.104; with C15U A43C, 0.0594. Consider G82U C86A, for which the self-cleavage was determined as 0.793. With C3G C63A the figure was 0.575; with U27A G38U, 0.0426; with G54C G74U, 0.475. With U27C U65G the figure was 0.831; with C15U C62U, 0.764; with C14G C19A, 0. With C14G C19U the figure was 0.0852; with A43G A87U, 0.554; with G52A G59C, 1.05.

In the case of G6A C21G, the self-cleavage was found to be 0.203. Next, C3U U72A: 0.684; C14A G73U: 0.13; U46G C64A: 0.0831.

As to G10C C66U, the self-cleavage worked out at 0.862. Take G11C G17A: the self-cleavage was 0.231. In the case of G2U U60A, the self-cleavage came to 0.0396.

Consider U9C C49A, for which the self-cleavage stood at 0.703. For the variant C49G C86A, the self-cleavage was determined as 0.966. For A78G A83G, the self-cleavage turned out to be 0.445. Next, C86U A87G: 0.942.

Turning to C24U G67A, the self-cleavage was 0.554. With G31U G68C the figure was 0.344; with U12C C26A, 0.831.

Consider C4U A42C, for which the self-cleavage turned out to be 0.0475.

Consider A42G A78U, for which the self-cleavage was determined as 0.162. Next, C14G G38U: 0.106; C14A C41U: 0.539; U9C G25C: 0.0615. As to C44A G73C, the self-cleavage stood at 0.696. Next, A45C G59A: 0.704. With C13G C58G, the self-cleavage came to 0.119.

In the case of C18G A43C, the self-cleavage came to 0.332. With U20C G73A the figure was 0. With A16U G52A the figure was 0.7.

As for U46C A87C, the self-cleavage stood at 0.91. As to C22G C49A, the self-cleavage turned out to be 0.131.

Take C14U C64A: the self-cleavage was 0.939. With G2U C7A the figure was 0.013; with G40U G52U, 0.576; with C66G G76U, 0.88. With U27A G68U the figure was 0.875. With U9C C85U the figure was 1.07; with C84A C85G, 0.519. Take A8U C36G: the self-cleavage was 0.125. With C18G U20C the figure was 0; with C7A G67U, 0.378. With G50A G74U, the self-cleavage turned out to be 0.483. In the case of G74C A83C, the self-cleavage is 0.295.

For the variant G28C C32G, the self-cleavage stood at 0. For U46A U72A, the self-cleavage is 0.615. In the case of U9G U23G, the self-cleavage was found to be 0.95. Next, G1A C61U: 0.26. Next, C49U G76A: 1.08. Next, U23A G25C: 0.208; C21U G53C: 0.188; C32U A51G: 0.92. In the case of A78U A87C, the self-cleavage came out at 0.31. Next, C44U A51C: 0.931; C63U G73A: 0.831; C14A U27C: 0.554. Consider C3A C61U, for which the self-cleavage turned out to be 0.554. For C33U C49U, the self-cleavage stood at 1.06. With C36A A71C the figure was 0.0573.

Take C48G U65A: the self-cleavage is 0.511. For A42C G54U, the self-cleavage was found to be 0.312. Next, G67U G68U: 0.76; C7A U27G: 0.447. With A56C C63U the figure was 1.01.
